From patent US9260500B2, “Peptide and use thereof” (Takeda Pharmaceutical Company Limited, priority 2009, dated 2016)
Starred links: 1 amine or outer side, 2 acyl side, 3 side chain; linkers in the order of their positions; H or OH if unused. Non-standard residues stand in square brackets, D forms with d. Primed or numbered codes have the meaning given here. No end group written: not given here. *: point of attachment. Asn(Me)″ = Nω-methylasparagine, CNC(=O)C[C@H](N[*:1])C(=O)[*:2]; Phe(4-F) = N[C@@H](Cc1ccc(F)cc1)C(=O)O; Cyclohexanecarbonyl = O=C(C1CCCCC1)*; 4Pal = N[C@@H](Cc1ccncc1)C(=O)O; dHyp = O=C(O)[C@H]1C[C@H](O)CN1; Cha = N[C@@H](CC1CCCCC1)C(=O)O; 4Amb = NCc1ccc(C(=O)O)cc1; dPip = O=C(O)[C@H]1CCCCN1; Isobutyryl = CC(C)C(=O)*; Nle = CCCC[C@H](N)C(=O)O; dNMeA = CN[C@H](C)C(=O)O; Nva = CCC[C@H](N)C(=O)O; Abu = CC[C@H](N)C(=O)O; Dap = NC[C@H](N)C(=O)O; Aib = CC(C)(N)C(=O)O; Bz = O=C(c1ccccc1)*; Ahx = NCCCCCC(=O)O

Legend:
human Y2 receptor [1] = target: T1, human Y2 receptor (Homo sapiens, UniProt P49146); experiment: Receptor Binding Assay (RBA) for Human Y2, [125I]-PYY displacement on hY2R/CHO membrane fraction; conditions: IC50 of test compound/IC50 of PYY(3-36) (PYY(3-36) taken as 1)
T1 construct: expressed in transfected cells; membrane fraction
T1 sequence (P49146 1-381): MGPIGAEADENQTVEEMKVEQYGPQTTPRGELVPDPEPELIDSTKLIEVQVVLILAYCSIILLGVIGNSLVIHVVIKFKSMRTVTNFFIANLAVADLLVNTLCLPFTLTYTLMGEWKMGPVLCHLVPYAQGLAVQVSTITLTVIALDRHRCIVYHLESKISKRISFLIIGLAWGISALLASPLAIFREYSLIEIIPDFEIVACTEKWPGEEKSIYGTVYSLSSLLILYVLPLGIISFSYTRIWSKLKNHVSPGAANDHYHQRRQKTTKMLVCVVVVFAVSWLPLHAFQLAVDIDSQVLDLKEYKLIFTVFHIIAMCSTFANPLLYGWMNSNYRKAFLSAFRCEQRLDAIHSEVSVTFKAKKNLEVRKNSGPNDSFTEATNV
How it was run: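 hY2R stably expressed in CHO/dhfr− cells; membrane fraction prepared from cells disrupted in 10 mM NaHCO3, 5 mM EDTA buffer with protease inhibitors. Binding read as displacement of [125I]-PYY.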

human Y2 receptor [2] = target: T1, human Y2 receptor; experiment: Human Y2 Receptor G Protein Binding Assay (GBA), [35S]GTPγS; assay type: biochemical; conditions: EC50 of test compound/EC50 of PYY(3-36) (PYY3-36 taken as 1), hY2R/CHO membrane fraction
How it was run: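 Agonism measured as [35S]GTPγS binding, read by GF/C filtration and scintillation counting after 120 min at room temperature, using human Y2 membranes at 1 μg protein/mL in pH 7.4 Tris/MgCl2/NaCl/GDP buffer. Compound serially diluted 100 μM–1 nM; EC50 normalized to PYY(3-36) (ratio = compound/PYY).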

Substance	RBA IC50 Ratio (human Y2 receptor [1])	GBA EC50 Ratio (human Y2 receptor [2])
Ac-[D-Pro24, Pya(4)26, Cha27,36, Aib28,31, Lys30]-PYY(24-36) (Ac-[dP]R[4Pal][Cha][Aib]NK[Aib]TRQR[Cha]-NH2; SMILES CC(=O)N1CCC[C@@H]1C(=O)N[C@@H](CCCNC(=N)N)C(=O)N[C@@H](Cc1ccncc1)C(=O)N[C@@H](CC1CCCCC1)C(=O)NC(C)(C)C(=O)N[C@@H](CC(N)=O)C(=O)N[C@@H](CCCCN)C(=O)NC(C)(C)C(=O)N[C@H](C(=O)N[C@@H](CCCNC(=N)N)C(=O)N[C@@H](CCC(N)=O)C(=O)N[C@@H](CCCNC(=N)N)C(=O)N[C@@H](CC1CCCCC1)C(N)=O)[C@@H](C)O) [compound No. 251]	0.68	0.56
Ac-[Glu23, D-Pic(2)24, Cha27,28,36, Aib31]-PYY(23-36) (Ac-E[dPip]RH[Cha][Cha]NL[Aib]TRQR[Cha]-NH2; SMILES CC(=O)N[C@@H](CCC(=O)O)C(=O)N1CCCC[C@@H]1C(=O)N[C@@H](CCCNC(=N)N)C(=O)N[C@@H](Cc1c[nH]cn1)C(=O)N[C@@H](CC1CCCCC1)C(=O)N[C@@H](CC1CCCCC1)C(=O)N[C@@H](CC(N)=O)C(=O)N[C@@H](CC(C)C)C(=O)NC(C)(C)C(=O)N[C@H](C(=O)N[C@@H](CCCNC(=N)N)C(=O)N[C@@H](CCC(N)=O)C(=O)N[C@@H](CCCNC(=N)N)C(=O)N[C@@H](CC1CCCCC1)C(N)=O)[C@@H](C)O) [compound No. 120]	17	10
4-Aminomethylbenzoyl-[Ala26, Ile28, VAl31]-PYY(25-36) ([4Amb]RAYINLVTRQRY-NH2; N-terminus assumed; SMILES CC[C@H](C)[C@H](NC(=O)[C@H](Cc1ccc(O)cc1)NC(=O)[C@H](C)NC(=O)[C@H](CCCNC(=N)N)NC(=O)c1ccc(CN)cc1)C(=O)N[C@@H](CC(N)=O)C(=O)N[C@@H](CC(C)C)C(=O)N[C@H](C(=O)N[C@H](C(=O)N[C@@H](CCCNC(=N)N)C(=O)N[C@@H](CCC(N)=O)C(=O)N[C@@H](CCCNC(=N)N)C(=O)N[C@@H](Cc1ccc(O)cc1)C(N)=O)[C@@H](C)O)C(C)C) [compound No. 39]	7.2	4.0
Benzoyl-[Cha27,36, Ile28, Dap31]-PYY(25-36) (Bz-RH[Cha]INL[Dap]TRQR[Cha]-NH2; SMILES CC[C@H](C)[C@H](NC(=O)[C@H](CC1CCCCC1)NC(=O)[C@H](Cc1c[nH]cn1)NC(=O)[C@H](CCCNC(=N)N)NC(=O)c1ccccc1)C(=O)N[C@@H](CC(N)=O)C(=O)N[C@@H](CC(C)C)C(=O)N[C@@H](CN)C(=O)N[C@H](C(=O)N[C@@H](CCCNC(=N)N)C(=O)N[C@@H](CCC(N)=O)C(=O)N[C@@H](CCCNC(=N)N)C(=O)N[C@@H](CC1CCCCC1)C(N)=O)[C@@H](C)O) [compound No. 69]	37	28
Isobutanoyl-[D-Pro24, Pya(4)26, Cha27,36, Aib28,31, Lys30]-PYY(23-36) (Isobutyryl-S[dP]R[4Pal][Cha][Aib]NK[Aib]TRQR[Cha]-NH2; SMILES CC(C)C(=O)N[C@@H](CO)C(=O)N1CCC[C@@H]1C(=O)N[C@@H](CCCNC(=N)N)C(=O)N[C@@H](Cc1ccncc1)C(=O)N[C@@H](CC1CCCCC1)C(=O)NC(C)(C)C(=O)N[C@@H](CC(N)=O)C(=O)N[C@@H](CCCCN)C(=O)NC(C)(C)C(=O)N[C@H](C(=O)N[C@@H](CCCNC(=N)N)C(=O)N[C@@H](CCC(N)=O)C(=O)N[C@@H](CCCNC(=N)N)C(=O)N[C@@H](CC1CCCCC1)C(N)=O)[C@@H](C)O) [compound No. 212]	0.79	0.89
Benzoyl-[Nva27, Cha28,36, Aib31]-PYY(25-36) (Bz-RH[Nva][Cha]NL[Aib]TRQR[Cha]-NH2; SMILES CCC[C@H](NC(=O)[C@H](Cc1c[nH]cn1)NC(=O)[C@H](CCCNC(=N)N)NC(=O)c1ccccc1)C(=O)N[C@@H](CC1CCCCC1)C(=O)N[C@@H](CC(N)=O)C(=O)N[C@@H](CC(C)C)C(=O)NC(C)(C)C(=O)N[C@H](C(=O)N[C@@H](CCCNC(=N)N)C(=O)N[C@@H](CCC(N)=O)C(=O)N[C@@H](CCCNC(=N)N)C(=O)N[C@@H](CC1CCCCC1)C(N)=O)[C@@H](C)O) [compound No. 103]	13	8.6
Isobutanoyl-[Abu26, Cha27,36, Phe(4F)28, Aib31]-PYY(25-36) (Isobutyryl-R[Abu][Cha][Phe(4-F)]NL[Aib]TRQR[Cha]-NH2; SMILES CC[C@H](NC(=O)[C@H](CCCNC(=N)N)NC(=O)C(C)C)C(=O)N[C@@H](CC1CCCCC1)C(=O)N[C@@H](Cc1ccc(F)cc1)C(=O)N[C@@H](CC(N)=O)C(=O)N[C@@H](CC(C)C)C(=O)NC(C)(C)C(=O)N[C@H](C(=O)N[C@@H](CCCNC(=N)N)C(=O)N[C@@H](CCC(N)=O)C(=O)N[C@@H](CCCNC(=N)N)C(=O)N[C@@H](CC1CCCCC1)C(N)=O)[C@@H](C)O) [compound No. 79]	23	20

The remaining lines, values ahead:

RBA IC50 Ratio (human Y2 receptor [1])	GBA EC50 Ratio (human Y2 receptor [2])	Substance
0.32	1.1	[Acp23, D-Pro24, Pya(4)26, Cha27,36, Aib28,31, Lys30]-PYY(23-36) (Ac-[Ahx][dP]R[4Pal][Cha][Aib]NK[Aib]TRQR[Cha]-NH2) [compound No. 304]
1.1	0.9	Ac-[D-Hyp24, Cha27,28,36, Aib31]-PYY(23-36) (Ac-S[dHyp]RH[Cha][Cha]NL[Aib]TRQR[Cha]-NH2; SMILES CC(=O)N[C@@H](CO)C(=O)N1C[C@@H](O)C[C@@H]1C(=O)N[C@@H](CCCNC(=N)N)C(=O)N[C@@H](Cc1c[nH]cn1)C(=O)N[C@@H](CC1CCCCC1)C(=O)N[C@@H](CC1CCCCC1)C(=O)N[C@@H](CC(N)=O)C(=O)N[C@@H](CC(C)C)C(=O)NC(C)(C)C(=O)N[C@H](C(=O)N[C@@H](CCCNC(=N)N)C(=O)N[C@@H](CCC(N)=O)C(=O)N[C@@H](CCCNC(=N)N)C(=O)N[C@@H](CC1CCCCC1)C(N)=O)[C@@H](C)O) [compound No. 114]
7.5	6.9	Ac-[Glu23, D-Pro24, Nle25, Pya(4)26, Cha27,36, Aib28,31, Lys30]-PYY(23-36) (Ac-E[dP][Nle][4Pal][Cha][Aib]NK[Aib]TRQR[Cha]-NH2; SMILES CCCC[C@H](NC(=O)[C@H]1CCCN1C(=O)[C@H](CCC(=O)O)NC(C)=O)C(=O)N[C@@H](Cc1ccncc1)C(=O)N[C@@H](CC1CCCCC1)C(=O)NC(C)(C)C(=O)N[C@@H](CC(N)=O)C(=O)N[C@@H](CCCCN)C(=O)NC(C)(C)C(=O)N[C@H](C(=O)N[C@@H](CCCNC(=N)N)C(=O)N[C@@H](CCC(N)=O)C(=O)N[C@@H](CCCNC(=N)N)C(=O)N[C@@H](CC1CCCCC1)C(N)=O)[C@@H](C)O) [compound No. 227]
6.6	4.2	Ac-[D-Pro24, Lys(Ac)25, Pya(4)26, Cha27,36, Aib28,31, Lys30]-PYY(23-36) (Ac-S[dP]K(Ac)[4Pal][Cha][Aib]NK[Aib]TRQR[Cha]-NH2; SMILES CC(=O)NCCCC[C@H](NC(=O)[C@H]1CCCN1C(=O)[C@H](CO)NC(C)=O)C(=O)N[C@@H](Cc1ccncc1)C(=O)N[C@@H](CC1CCCCC1)C(=O)NC(C)(C)C(=O)N[C@@H](CC(N)=O)C(=O)N[C@@H](CCCCN)C(=O)NC(C)(C)C(=O)N[C@H](C(=O)N[C@@H](CCCNC(=N)N)C(=O)N[C@@H](CCC(N)=O)C(=O)N[C@@H](CCCNC(=N)N)C(=O)N[C@@H](CC1CCCCC1)C(N)=O)[C@@H](C)O) [compound No. 280]
3.4	2.2	Ac-[D-MeAla24, Cha27,28,36, Aib31]-PYY(23-36) (Ac-S[dNMeA]RH[Cha][Cha]NL[Aib]TRQR[Cha]-NH2; SMILES CC(=O)N[C@@H](CO)C(=O)N(C)[C@H](C)C(=O)N[C@@H](CCCNC(=N)N)C(=O)N[C@@H](Cc1c[nH]cn1)C(=O)N[C@@H](CC1CCCCC1)C(=O)N[C@@H](CC1CCCCC1)C(=O)N[C@@H](CC(N)=O)C(=O)N[C@@H](CC(C)C)C(=O)NC(C)(C)C(=O)N[C@H](C(=O)N[C@@H](CCCNC(=N)N)C(=O)N[C@@H](CCC(N)=O)C(=O)N[C@@H](CCCNC(=N)N)C(=O)N[C@@H](CC1CCCCC1)C(N)=O)[C@@H](C)O) [compound No. 110]
76	37	Cyclohexanecarbonyl-[Cha27,36, Ile28,31, Asn(Me)29]-PYY(25-36) (Cyclohexanecarbonyl-RH[Cha]I[Asn(Me)″]LITRQR[Cha]-NH2; SMILES CC[C@H](C)[C@H](NC(=O)[C@H](CC1CCCCC1)NC(=O)[C@H](Cc1c[nH]cn1)NC(=O)[C@H](CCCNC(=N)N)NC(=O)C1CCCCC1)C(=O)N[C@@H](CC(=O)NC)C(=O)N[C@@H](CC(C)C)C(=O)N[C@H](C(=O)N[C@H](C(=O)N[C@@H](CCCNC(=N)N)C(=O)N[C@@H](CCC(N)=O)C(=O)N[C@@H](CCCNC(=N)N)C(=O)N[C@@H](CC1CCCCC1)C(N)=O)[C@@H](C)O)[C@@H](C)CC) [compound No. 75]
